Series [1] has as its system HeLa Kyoto. Kind of series: melting temperature (median over replicates), in situ; higher = more thermally stable.
The test system of series [2] is HeLa Kyoto. As to the kind of experiment: solubility change mitosis vs G1/S (difference of NP-40 vs SDS log2 ratios) (log2 ratio difference); higher = more soluble in mitosis.
In series [3] the test system is HeLa Kyoto. As to the kind of experiment: thermal stability score vs G1/S (z-score of summed log2 fold changes over temperatures); higher = more thermally stable than in G1/S.
Series [4] has as its system HeLa Kyoto. Kind of series: solubility in G1/S (NP-40 vs SDS abundance) (log2 ratio); higher = more soluble. Conditions: cell cycle stage: G1/S.
The mark [5] stands for this setting: cell cycle stage: early G1 (4.5 h after nocodazole release).
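Throughout, for melting temperature (median over replicates), in situ: HeLa Kyoto cells synchronized by double thymidine or nocodazole block, proteins quantified by TMT10plex mass spectrometry, three independent biological replicates.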
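Throughout, for solubility change mitosis vs G1/S (difference of NP-40 vs SDS log2 ratios): synchronized HeLa Kyoto cells (double thymidine block for G1/S, nocodazole release for mitosis), protein amounts in NP-40 versus SDS lysates quantified by mass spectrometry, three biological replicates.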
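Throughout, for solubility in G1/S (NP-40 vs SDS abundance): HeLa Kyoto cells arrested at G1/S by double thymidine block, proteins quantified by TMT10plex mass spectrometry in mild NP-40 versus SDS extracts, three biological replicates.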
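Throughout, for thermal stability score vs G1/S (z-score of summed log2 fold changes over temperatures): synchronized HeLa Kyoto cells, proteins quantified by TMT10plex mass spectrometry, three biological replicates, mitosis taken 0.5 h after nocodazole release, G1/S directly after double thymidine block.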

As to “MAERGYSFSLTTFSPSGKLVQIEYALAAVAGGAPSVGIKAANGVVLATEKKQKSILYDERSVHKVEPITKHIGLVYSGMGPDYRVLVHRARKLAQQYYLVYQEPIPTAQLVQRVASVMQEYTQSGGVRPFGVSLLICGWNEGRPYLFQSDPSGAYFAWKATAMGKNYVNGKTFLEKRYNEDLELEDAIHTAILTLKESFEGQMTEDNIEVGICNEAGFRRLTPTEVKDYLAAIA [PSMA2]”, the melting temperature stood at 58.3 °C with HeLa Kyoto [1] (cell cycle stage: G1/S) and 60.8 °C with HeLa Kyoto [1] (cell cycle stage: mitosis). Moreover, the “solubility change mitosis (log2)” value in the series with HeLa Kyoto [2] is -0.045. In addition, the thermal stability score is -1.52 in the series on HeLa Kyoto [3] (setting [5]) and -1.53 in the series with HeLa Kyoto [3] (cell cycle stage: mitosis). The “solubility in G1/S (log2)” value in the series on HeLa Kyoto [4] was determined as 0.391.
Turning to “MARMNRPAPVEVTYKNMRFLITHNPTNATLNKFIEELKKYGVTTIVRVCEATYDTTLVEKEGIHVLDWPFDDGAPPSNQIVDDWLSLVKIKFREEPGCCIAVHCVAGLGRAPVLVALALIEGGMKYEDAVQFIRQKRRGAFNSKQLLYLEKYRPKMRLRFKDSNGHRNNCCIQ [PTP4A1]”, the melting temperature in the series with HeLa Kyoto [1] (cell cycle stage: G1/S) was found to be 52.9 °C; in the series with HeLa Kyoto [1] (cell cycle stage: mitosis), 53.8 °C. Besides, in the series on HeLa Kyoto [2], the “solubility change mitosis (log2)” value was -0.0406. For the same substance, the figures for the thermal stability score with HeLa Kyoto [3] (setting [5]) and with HeLa Kyoto [3] (cell cycle stage: mitosis) were 0.98 and -0.349, respectively. The “solubility in G1/S (log2)” value with HeLa Kyoto [4] was -0.131.
For the substance “MAHCVTLVQLSISCDHLIDKDIGSKSDPLCVLLQDVGGGSWAELGRTERVRNCSSPEFSKTLQLEYRFETVQKLRFGIYDIDNKTPELRDDDFLGGAECSLGQIVSSQVLTLPLMLKPGKPAGRGTITVSAQELKDNRVVTMEVEARNLDKKDFLGKSDPFLEFFRQGDGKWHLVYRSEVIKNNLNPTWKRFSVPVQHFCGGNPSTPIQVQCSDYDSDGSHDLIGTFHTSLAQLQAVPAEFECIHPEKQQKKKSYKNSGTIRVKICRVETEYSFLDYVMGGCQINFTVGVDFTGSNGDPSSPDSLHYLSPTGVNEYLMALWSVGSVVQDYDSDKLFPAFGFGAQVPPDWQVSHEFALNFNPSNPYCAGIQGIVDAYRQALPQVRLYGPTNFAPIINHVARFAAQAAHQGTASQYFMLLLLTDGAVTDVEATREAVVRASNLPMSVIIVGVGGADFEAMEQLDADGGPLHTRSGQAAARDIVQFVPYRRFQNAPREALAQTVLAEVPTQLVSYFRAQGWAPLKPLPPSAKDPAQAPQA [CPNE1]”, the melting temperature amounted to 52 °C in the series on HeLa Kyoto [1] (cell cycle stage: G1/S) and 51.9 °C with HeLa Kyoto [1] (cell cycle stage: mitosis). For the same substance, the “solubility change mitosis (log2)” value in the series with HeLa Kyoto [2] was -0.134. For the same substance, the thermal stability score was determined as 0.0462 with HeLa Kyoto [3] (setting [5]) and 0.0377 in the series with HeLa Kyoto [3] (cell cycle stage: mitosis). Moreover, the “solubility in G1/S (log2)” value in the series with HeLa Kyoto [4] was determined as 0.146.
Take “MKRRLDDQESPVYAAQQRRIPGSTEAFPHQHRVLAPAPPVYEAVSETMQSATGIQYSVTPSYQVSAMPQSSGSHGPAIAAVHSSHHHPTAVQPHGGQVVQSHAHPAPPVAPVQGQQQFQRLKVEDALSYLDQVKLQFGSQPQVYNDFLDIMKEFKSQSIDTPGVISRVSQLFKGHPDLIMGFNTFLPPGYKIEVQTNDMVNVTTPGQVHQIPTHGIQPQPQPPPQHPSQPSAQSAPAPAQPAPQPPPAKVSKPSQLQAHTPASQQTPPLPPYASPRSPPVQPHTPVTISLGTAPSLQNNQPVEFNHAINYVNKIKNRFQGQPDIYKAFLEILHTYQKEQRNAKEAGGNYTPALTEQEVYAQVARLFKNQEDLLSEFGQFLPDANSSVLLSKTTAEKVDSVRNDHGGTVKKPQLNNKPQRPSQNGCQIRRHPTGTTPPVKKKPKLLNLKDSSMADASKHGGGTESLFFDKVRKALRSAEAYENFLRCLVIFNQEVISRAELVQLVSPFLGKFPELFNWFKNFLGYKESVHLETYPKERATEGIAMEIDYASCKRLGSSYRALPKSYQQPKCTGRTPLCKEVLNDTWVSFPSWSEDSTFVSSKKTQYEEHIYRCEDERFELDVVLETNLATIRVLEAIQKKLSRLSAEEQAKFRLDNTLGGTSEVIHRKALQRIYADKAADIIDGLRKNPSIAVPIVLKRLKMKEEEWREAQRGFNKVWREQNEKYYLKSLDHQGINFKQNDTKVLRSKSLLNEIESIYDERQEQATEENAGVPVGPHLSLAYEDKQILEDAAALIIHHVKRQTGIQKEDKYKIKQIMHHFIPDLLFAQRGDLSDVEEEEEEEMDVDEATGAVKKHNGVGGSPPKSKLLFSNTAAQKLRGMDEVYNLFYVNNNWYIFMRLHQILCLRLLRICSQAERQIEEENREREWEREVLGIKRDKSDSPAIQLRLKEPMDVDVEDYYPAFLDMVRSLLDGNIDSSQYEDSLREMFTIHAYIAFTMDKLIQSIVRQLQHIVSDEICVQVTDLYLAENNNGATGGQLNTQNSRSLLESTYQRKAEQLMSDENCFKLMFIQSQGQVQLTIELLDTEEENSDDPVEAERWSDYVERYMNSDTTSPELREHLAQKPVFLPRNLRRIRKCQRGREQQEKEGKEGNSKKTMENVDSLDKLECRFKLNSYKMVYVIKSEDYMYRRTALLRAHQSHERVSKRLHQRFQAWVDKWTKEHVPREMAAETSKWLMGEGLEGLVPCTTTCDTETLHFVSINKYRVKYGTVFKAP [SIN3A]”: the melting temperature worked out at 48.4 °C in the series on HeLa Kyoto [1] (cell cycle stage: G1/S) and 49.5 °C in the series with HeLa Kyoto [1] (cell cycle stage: mitosis). Besides, the “solubility change mitosis (log2)” value in the series on HeLa Kyoto [2] was -0.073. The figures for the thermal stability score in the series on HeLa Kyoto [3] (setting [5]) and in the series with HeLa Kyoto [3] (cell cycle stage: mitosis) were 1.76 and 4.27, respectively. Moreover, in the series with HeLa Kyoto [4], the “solubility in G1/S (log2)” value was -0.136.
LAMC1: the results for the melting temperature with HeLa Kyoto [1] (cell cycle stage: G1/S) and with HeLa Kyoto [1] (cell cycle stage: mitosis) were 53.5 °C and 53.9 °C, respectively. Further, the “solubility change mitosis (log2)” value in the series with HeLa Kyoto [2] was -0.0329. The thermal stability score in the series on HeLa Kyoto [3] (setting [5]) came out at 2.27; in the series with HeLa Kyoto [3] (cell cycle stage: mitosis), 3.77. The “solubility in G1/S (log2)” value in the series on HeLa Kyoto [4] was -0.0818.

The values above are taken from the supplement of paper PMC5998384.
